# Results published in the DeepSol protein solubility set.
# Test: soluble on expression in E. coli; label from the status in PepcDB or PDB records
row,Sequence,soluble on expression in E. coli
1,MGSDKIHHHHHHESEDPWLVLQKAARAAHELSYKGVFIYQAGDNIKSVQITHTNSGQGEYARMVVLDGAPREVLSQGGDVVIFSSKNEKVIMEKRRAHNLFPAVLPDDMELLKANYQARIGGTERIAGRAGRVVFLDPRDGLRYAYKFWADCEYGLLLKSLMLSEQKQMLEQMAFSQLNMMEEQGMDWFHPSVDHSKHYILEEANAQLVQEASNWTVGALPVGYRKVEQVTRLVPGKSAPVTQVIFTDGLASVSLFIEPLSKGVRPRIGQTSKGATHFYANVSKGHQILVVGEVPAATVAQIGSAVSFK,not soluble
2,MKEGDTMSWQTHTVFNQPAPLNNSNLFLSDGALCEAVSREGAGWDSDLLASIGQQLGTAESLELGRLANAHPPELLRYDPQGQRLDDVRFHPAWHLLMQGLCANRVHNLAWEEEARAGSFVARAARFVLHAQVEAGTLCPVTMTFAATPLLLQMLPATFHDWLAPLRSDRYDSHLLPGGQKRGLLIGMGMTEKQGGSDVLSNTTHAERLADDSYRLVGHKWFFSVPQSDAHLVLAQAKGGLSCFFVPRFLPDGQRNSVRLERLKDKLGNRSNASAEVEFQDAIGWRLGEEGEGIRHILKMGGMTRLDCALGSHGLMRRAFSVAIYHAHQRQAFGKPLIDQPLMRQTLSRMALCLEGQTALLFRLARAWEQRREAKEALWARLFTPAAKFAICKLGIPFVAEAMEVLGGMGYCEESELPRLYREMPVNSIWEGSGNIMCLDVLRVLTKQHGVYDVLSEAFAEVKGQDRHYDRAVRQLQQRLRKPDEAMGREITQQLFLLGCGAEMLRHASPPLAQAWCQMMLDTRGEMPLPAQVQNDLLLRATGGLR,not soluble
3,TIKNFTFFSPNSTEFPVGSNNDGKLYMMLTGMDYRTIRRKDWSSPLNTALNVQYTNTSIIAGGRYFELLNETVALKGDSVNYIHANIDLTQTANPVSLSAETANNSNGVDINNGSGVLKVCFDIVTTSGTGVTSTKPIVQTSTLDSISVNDMTVSGSIDVPVQTLTVEAGNGLQLQLTKKNNDLVIVRFFGSVSNIQKGWNMSGTWVDRPFRPAAVQSLVGHFAGRDTSFHIDINPNGSITWWGANIDKTPIATRGNGSYFIKSAW,soluble
4,MSFVECPYHSPAERLVAEADEGGPSAITEILKELDECYERFSRETDGAQKRRMLHCVQRALIRSQELGDEKIQIVSQMVELVENRTRQVDSHVELFEAQQELGDTAGNSGKLEHHHHHH,not soluble
5,MIKGSCLCGDIRYTTEAAPQGASMCHCGQCRRQSGGVWSSAFVPEADLTITGPVSWFAASDTAKRGFCARCGSFLFWKANDEDTISFSLGSVDGPTGLRLTKHIFVAGKGDYYDIADDAPHKD,not soluble
6,AIANDDRATAFNALKNKTVCVQGDGNSRQFYHALVEILSNHSSAIPVNKNGNDFCNAPFAQCPQDTYYFDLVDKSDNLSVKLYWRWAPEFSDIECPMKVPSGFTPGSNYSFPSGPDTLSCDINIMDAGQWELFEKDANVTTAGYSQGVSNLSKCFSSDKSAKYFWIAAYALTPEQLQIHLPYNNTDVERINEVATQGLNSTACVLNGYDVTVNAFNDTKEATTDGIHYLGWINEQVVHLFFNAVTNSSAPTVPSSNVSVTSPNVQLGQVPNLNPSTTNSFLPVQTIVTVPSSSATSASSGLNFGGSSQGGGSGIPQL,soluble
7,MVLLGRGLLAVGRVAFRRPMIVRHLQYDAFVDRHIGPRRLEQQQMLDFIGYKDLDDLTGTNVPNMIKAEKALELPAPLDEYKMLKELEAIAAQNKIYRSYIGMGYYDTIVPAVISRNILQNIGWISQYTPYQAEISQGRLESLLNFQTMIAEMTGLPTTNASLLDEATASAEAVALAARTTKRNKIVVDSFCHPQNLDVIRTRSGPLGIDIEVSDSIEGYAFDDKVAAVVVQYPNTEGRIHQFDELIESAHKNKSLVIMVCDLLSLTILRSPGDLGADIAVGSAQRFGVPLGYGGPHAGFMAVAKHDAKNALGRNIPGRIIGVTKDANGNRALRLALQTREQHIRRDKATSNICTAQALLANMSAMYAVYHGPQRLTEIARGVHKSTAYLAYHLRNAGHEIVHKDYFDTLKIRLKDKAALEETKKRAEEMKMNFRYYEDGDIGVSLDETVKSEDLMDIIYTLNGATEKDVTKLREERWEVACPLIGNSPHSRSSLFLQHPVFNTHQSEQQLVRYMKRLENKDVSLVHSMIPLGSCTMKLNASAELIPITWPTLSSIHPFAPVEQAKGYSRIFGDLEKWLCEITGYDNFSLQPNSGANGEYAGLLAIRNYLIHKGEEQRNICLIPTSAHGTNPASAQMANMKVVVVDSDHHGNINYKDLAAKAEKYSNQLAAIMVTYPSTHGVFESSIRDVCDKVHEHGGQVYLDGANMNAQVGLCRPGDYGSDVSHLNLHKTFCIPHGGGGPGVGPIGVKKHLAPFLPGHSVVPVDGRKVGSVASAPYGSASILAITWAYIRMMGPVGLREASQVAILNANYMAKRLENDYRIVYKDEQGLVAHEFIMDCKPFKKHGIEVVDIAKRLMDYGFHSPTMSWPVHDCLMIEPTESEDKAEMDRLVEALLSIREEIRQVENGSLDKHLNPLKMAPHTLEKVTSDNWNMPYSRELAAFPKPWCTHKAWPTVGRVDDQYGDRNLVCTCPPIESYQ,not soluble
8,MNAGKKGVIYTCITGGYDELLNHTFISPEWDYVCFSDDMGINNEKNAQWEIRPLRFEKLDDVRNQRWHKLHPHLLFPESGLSLWVDGNVDILDGEIFHDIDRALNANLLIAPSLHPERNCIYDEFDACRQLGKDDPDVMGRQEYLIKKDGFPKAKGLFETNIIFRCHSHPMVITIMEEWWYWVEQYSRRDQLGFTYVLWKNNYTVEPLSPVSYRFSPGVRFRYGAFHITKEQLIKEKAALEIKVQRFEALICGRLVKVLYKIRKSTVKRWCRVKMQLLNSLCCRKLEHHHHHH,not soluble
9,MNEKFRTDLAHTFGIALEEQTDVLSFHDNDGHEWILECASQSEILFFYCYLLNSESIQINSILEMNSNRELLGMFFLSLKDDNILLNIAFPADKIDITEFANLMENGYLLKNEIIRSLSSRPTDFLP,not soluble
10,MSELSQLSPQPLWDIFAKICSIPHPSYHEEQLAEYIVGWAKEKGFHVERDQVGNILIRQPATAGMENRKPVVLQAHLDMVPQKNNDTVHDFTKDPIQPYIDGEWVKARGTTLGADNGIGMASALAVLADENVVHGPLEVLLTMTEEAGMDGAFGLQSNWLQADILINTDSEEEGEIYMGCAGGIDFTSNLHLDREAVPAGFETFKLTLKGLKGGHSGGEIHVGLGNANKLLVRFLAGHAEELDLRLIDFNGGTLRNAIPREAFATIAVAADKVDALKSLVNTYQEILKNELAEKEKNLALLLDSVANDKAALIAKSRDTFIRLLNATPNGVIRNSDVAKGVVETSLNVGVVTMTDNNVEIHCLIRSLIDSGKDYVVSMLDSLGKLAGAKTEAKGAYPGWQPDANSPVMHLVRETYQRLFNKTPNIQIIHAGLECGLFKKPYPEMDMVSIGPTITGPHSPDEQVHIESVGHYWTLLTELLKEIPAKLEHHHHHH,soluble
11,MKILLIGGSGNIGRAIAAELSGRHEIIAAGRHHGDVRVDIEDEQSIAAMYRQLPRLDAVAVATGGRNGHVGPLAEMNAERYRVGLDAKLMGQVNLVLRGLDKVADGGSFTLVGGAWQPQAIVPLLSNVYMANAALEGFVNAAAVELPRRLRINLVSPLLLAESEAEYGPLFRGVPLVEARQVARAYSLSIEGLEHHHHHH,not soluble
12,MRYFIVAGEASGDLHASNLVRALKEHDPEAVFAFMGGDFLSEATGERPIFHYREVAFMGFIPVLTHLGVIRRAGEHVQEQMRAFNPDVVIAVDYPGFNMRYVLPFVREELGKPIVYYISPKVWAWKSWRIKTLKKYVDLMLCILPFEKDFFAGHDFPVIYVGNPCYDAVKQHMRPTIEEQERSAKDSRQVALLCGSRLLEVKENLPVMLRVMKQFPDYRPVIAGAPGLTIQDYTPFLPDDSIPVVFGRTYEILRESKAALVTSGTATLETALIGTPQVVCYYIRGGRLTNLIFKYCFGTPFISLTNLIAGRAVVPELFGALFTEKRLAASLSPLLDASSAERQAQLSGYDSIRKSIGTDNTSDKAARHIIARFAKDNARPSSL,not soluble
13,MSLSDKKVLCVEDEEVIRSNLMETLELFFDKVSGAKDGFEALEQAMCDTYDVFIFDISIPHLDGLEVLKRVRQFNKKTPIVILSAHKEQEYLWRAVELKITRYLTKPYDKNSLIKALEEVALELMDYHPLFQISPLHSYDFCRKAMTCKGEMVYLSKKREPTEGHHHHHH,not soluble
14,MKALALIAHDAKKDEMVAFCLRHKDVLARYPLLATGTTGARIQEATGLAVERVLSGPLGGDLQIGARVAEGKVLAVVFLQDPLTAKPHEPDVQALMRVCNVHGVPLATNLVAAEALIAWIRKGTPQ,soluble
15,MDLFLALRELGRPDQMNLSYLYLKKILEEELRDHDCQCQLNPDFTVTISCRVDGPHGALYIVPNSDFLKSSSFSDLSAFILNLREEIRRFGEFEAELQTGTG,not soluble
16,MSLYKVTRGKSEQYLKDERALEDYLIATGLDDCAFKLANGEVRGGRDLLALVEDARAIRSTLHNLHSRYNRSVVEQAAIAGVLSPRITTDIATANEAAAYIARRLDALADEVERGWVGHFTEGEGFRFERTVRGVKEVAAIDDAMLGSADARKLDEYAAVLQEVYPRPGVLRRKEAETAIHGPISLFEAVTDAGRKGVALQRYKGLGEMNPSQLWETTLDTNARSLLQVKVREVDEADDIFTKLMGDVVEPRREFIQENSLHATVDVEGHHHHHH,soluble
17,DVQPETCRPSAASGNYFPQYPEYAIETARLRTFEAWPRNLKQKPHQLAEAGFFYTGVGDRVRCFSCGGGLMDWNDNDEPWEQHALWLSQCRFVKLMKGQLYIDTVAAKPVLAEEKEESTSIGGD,soluble
18,MSLSKTRTFLFDLYGVLIKEHGAAQFERVARAVGEPSKNDKLHEVYESLRLDLDAGRVSEVNYWNQIKLLVGLEFLDIQEVIAADYRGLYERDQDMVDYVLSLKAKGHRIGILSNIPEGLAKLLKEHNSEWLDQLDAVTLSCDIGAAKPEPKSFHVALEALGEKAEDVTFIDDRVRNIEAAREEGLSTIHFTGLDSLKESIQEGHHHHHH,soluble
19,MIDAVATDSSSTPSNEKPRRARRTRMTGAERRQQLLEIGRTLFAAKGFEGTSVEEIAAKAGVSKPVVYEHFGGKEGLYAVVVDREMRRLLDMVTGSLTAGHPRELCEQAAFALLDYIEEYTDGFRILVRDSPIPQSTGTFASLISDIATQVEDILGREFKNRGFDAKLAPLYAQALVGMVALTGQWWLDVRRPKKAEVAAHLVNLAWHGLDGLEPKPRLIGHRKS,not soluble
20,MIKNLITQQEGKTLEFKRDLSSPKSLLKSIVAFANTAGGHLIIGVNDERQIIGVEHPLDEEERLCNLIADSISPRLIPSIELVTLNNKTLLVIEVFVSNTGPHWINSEGSTQGIYVRLGSTNRQADQELITELHRRSEGVNFDEMPMPQLSVDDVDITKAQELFSDIKSLNEKNLLTLKLITSHQGKLVPTKGAILLFGKERNTYFPDAWVQCGRFIGKDKSRIFDHVDIYDYLPDAVESIMMFLKKHALRGADFSAVQRKDIWSIPLVMLREAVINALVHTDYSQRGAPIRISFFDDRIEIENPGILLPGLTIEDMRQGISKIRNHVIARVFRELNLIEQWGSGVSRIYSEAIEQKLQEPEIIEIGMRIRFIIYLAQGIPIDSTFDKRDKQLESRLESRLESRLESKLAARVIQVLQNGEAGKIQIARSLGHQTVSGELHKQIKQLLKLEIIEMTIPDKPNSRLQKYRLTNKGIDLINIIQRELAAALEHHHHHH,not soluble
